# Measured values reported in paper PMC4111604, “Structural Characterization of the Saccharomyces cerevisiae THO Complex by Small-Angle X-Ray Scattering” (PLoS ONE, 2014).
# B1: Mft1pΔC336-392 with C-terminal 6xHis tag (isolated protein) (domain or fragment, Saccharomyces cerevisiae, UniProt P33441 1-335, looked up)
# chain: MPLSQKQIDQVRTKVHYSEVDTPFNKYLDILGKVTKLTGSIINGTLSNDDSKIEKLTEQNISQLKESAHLRFLDLQSSIDTKKVADENWETCQQETLAKLENLKDKLPDIKSIHSKLLLRIGKLQGLYDSVQVINREVEGLSEGRTSLVVTRAEWEKELGTDLVKFLIEKNYLKLVDPGLKKDSSEERYRIYDDFSKGPKELESINASMKSDIENVRQEVSSYKEKWLRDAEIFGKITSIFKEELLKRDGLLNEAEGDNIDEDYESDEDEERKERFKRQRSMVEVNTIENVDEKEESDHEYDDQEDEENEEEDDMEVDVEDIKEDNEVDGESSQQ
# notes: pET-30 Ek/LIC vector; purified without TEV cleavage; also called isolated Mft1p; source: E. coli Rosetta (DE3), purified (Ni-NTA, Source 15Q, Superdex 200); not shown: 6xHis, C-terminal, kept
# B2: Thp2p with C-terminal 6xHis tag (isolated protein) (natural protein, Saccharomyces cerevisiae, UniProt O13539 1-261, looked up)
# chain: MTKEEGRTYFESLCEEEQSLQESQTHLLNILDILSVLADPRSSDDLLTESLKKLPDLHRELINSSIRLRYDKYQTREAQLLEDTKTGRDVAAGVQNPKSISEYYSTFEHLNRDTLRYINLLKRLSVDLAKQVEVSDPSVTVYEMDKWVPSEKLQGILEQYCAPDTDIRGVDAQIKNYLDQIKMARAKFGLENKYSLKERLSTLTKELNHWRKEWDDIEMLMFGDDAHSMKKMIQKIDSLKSEINAPSESYPVDKEGDIVLE
# notes: Thp2p, Saccharomyces cerevisiae; pET-30 Ek/LIC vector; purified without TEV cleavage; also called isolated Thp2p; source: E. coli Rosetta (DE3), purified (Ni-NTA, Source 15Q, Superdex 200); not shown: 6xHis, C-terminal, kept
# Molecular target: the molecule itself
# Assay: SAXS; purified proteins or co-expressed, co-purified complexes in solution; 50 mM Tris-Cl pH 8.0, 100 mM KCl, 5 mM MgCl2, 5 mM 2-mercaptoethanol; 10°C or 25°C; 3-6 concentrations between 7.8 and 0.15 mg/ml; homodimers told from measurements at low concentrations
row,Protein,stoichiometry N
1,B1,2
2,B2,2
